Paper PMC5664961
Values belong to the substance of their own block, whether it stands above or below them.

Experiments:
[1] = target: 6His-KCTD17 BTB domain (residues G20-K131), N-terminal hexahistidine tag kept (human); test: crystal structure; BTB domains alone, sitting-drop vapour diffusion at 20 and 4°C, data at 100 K
[2] = target: 6His-KCTD17 BTB domain (residues G20-K131), N-terminal hexahistidine tag kept (human); test: as above; remark: listed apart in the source
[3] = target: 6His-KCTD17 BTB domain (residues G20-K131), N-terminal hexahistidine tag kept (human); test: SEC-MALS; BTB domains alone, injected at 50 µM; Shodex KW-803; 50 mM HEPES pH 7.5, 150 mM NaCl, 1 mM TCEP
[4] = target: 6His-KCTD17 BTB domain (residues G20-K131), N-terminal hexahistidine tag kept (human); test: native MS; 6His-KCTD17 at 2 mg/ml exchanged into 50 mM ammonium acetate pH 6.5; electrospray, Agilent 6530 QTOF
[5] = target: 6His-KCTD17 BTB domain (residues G20-K131), N-terminal hexahistidine tag kept (human); test: SAXS; BTB domains alone, ~750 µM monomer; 50 mM HEPES, 150 mM NaCl, 0.5 mM TCEP; curves compared with those calculated from the crystal structures
[6] = target: 6xHis-tagged KCTD17 BTB + CTD multi-domain construct (residues G20-Q220), tag kept (human); test: SEC; KCTD17 constructs alone, 6xHis-tagged or tag-cleaved; UV 280 nm traces; various running buffers (pH, salt)
[7] = target: KCTD17 BTB + CTD multi-domain construct (residues G20-Q220), tag cleaved (human); test: SEC; KCTD protein alone and mixed with Cul3 NTD at a molar ratio of 1 : 1; UV 280 nm traces; injected at 50 µM; 50 mM HEPES pH 7.5, 150 mM NaCl, 1 mM TCEP
[8] = target: human Cul3 N-terminal domain (NTD, residues M1-L388) with the engineered mutations I342R and L346D (human) (UniProt Q13618); test: as above
human Cul3 N-terminal domain (NTD, residues M1-L388) with the engineered mutations I342R and L346D (human), sequence (Q13618 1-388 I342R/L346D): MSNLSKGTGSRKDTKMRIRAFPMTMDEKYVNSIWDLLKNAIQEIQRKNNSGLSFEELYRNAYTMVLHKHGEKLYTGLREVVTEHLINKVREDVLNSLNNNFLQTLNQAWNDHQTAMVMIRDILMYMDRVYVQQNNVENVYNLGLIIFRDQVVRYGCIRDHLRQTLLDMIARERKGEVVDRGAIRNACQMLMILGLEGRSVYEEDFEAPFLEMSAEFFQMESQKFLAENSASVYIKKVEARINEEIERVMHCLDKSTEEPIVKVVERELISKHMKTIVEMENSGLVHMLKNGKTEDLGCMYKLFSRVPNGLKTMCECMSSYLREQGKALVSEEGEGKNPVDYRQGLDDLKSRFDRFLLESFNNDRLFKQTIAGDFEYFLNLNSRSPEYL

[9] = target: KCTD17 BTB + CTD multi-domain construct (residues G20-Q220) (human); test: ITC; KCTD17 in the cell, titrated with Cul3 from the syringe; 15°C; 50 mM HEPES pH 7.5, 150 mM NaCl, 1 mM TCEP, 5% glycerol; single-binding site model
[10] = target: T1, KCTD17 BTB domain (residues G20-K131) (human); test: as above
T1 sequence (Q8N5Z5 20-131, looked up): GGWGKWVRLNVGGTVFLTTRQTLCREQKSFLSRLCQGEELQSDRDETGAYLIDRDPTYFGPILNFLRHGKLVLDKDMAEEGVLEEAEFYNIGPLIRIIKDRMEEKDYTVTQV

[11] = target: T2, KCTD17 BTB domain (residues G20-K131) as used in ITC (human); test: ITC; KCTD17 in the cell, titrated with Cul3 NTD from the syringe; 15°C; 50 mM HEPES pH 7.5, 150 mM NaCl, 1 mM TCEP, 5% glycerol; single-binding site model
T2 sequence (Q8N5Z5 20-131, looked up): T1 sequence (Q8N5Z5 20-131, looked up)

[12] = target: human SHKBP1 BTB domain (residues G18-S120) (human) (UniProt Q8TBC3); test: SEC; KCTD protein alone and mixed with Cul3 NTD at a molar ratio of 1 : 1; UV 280 nm traces; injected at 50 µM; 50 mM HEPES pH 7.5, 150 mM NaCl, 1 mM TCEP

Substance: 6His-KCTD17 BTB domain (residues G20-K131), N-terminal hexahistidine tag kept (domain or fragment)
stoichiometry N [1]: 5 | stoichiometry N [2]: 60 | stoichiometry N [3]: 60 | stoichiometry N [4]: 60 | stoichiometry N [5]: 60

Substance: 6xHis-tagged KCTD17 BTB + CTD multi-domain construct (residues G20-Q220), tag kept (domain or fragment)
stoichiometry N [6]: 60

The next lines start with the values.

stoichiometry N [7]: 5 | stoichiometry N (KCTD : Cul3 (5 : 5)) [8]: 1
Substance: KCTD17 BTB + CTD multi-domain construct (residues G20-Q220), tag cleaved (domain or fragment)

Ka [9]: 8.66e+07 M⁻¹ | Kd [9]: 12 nM | stoichiometry N [9]: 2.3 | Ka [10]: 1.41e+08 M⁻¹ | Kd [11]: 7 nM
Substance: human Cul3 N-terminal domain (NTD, residues M1-L388) with the engineered mutations I342R and L346D (from UniProt Q13618 1-388) (domain or fragment)

stoichiometry N [12]: 5
Substance: human SHKBP1 BTB domain (residues G18-S120) (from UniProt Q8TBC3 18-120) (domain or fragment)
